# From the supplement of paper PMC11246515
# ± gives the standard deviation of the averaged measurements.
# Test: total protein half-life in vivo (active degradation + dilution); higher = more stable protein
# [1] = E. coli NCM3722 delta-clpP delta-lon delta-hslV, growth: N-lim chemostat, doubling time 6 h
# [2] = E. coli NCM3722 delta-clpP, growth: N-lim chemostat, doubling time 6 h
# [3] = E. coli NCM3722 delta-hslV, growth: N-lim chemostat, doubling time 6 h
# [4] = E. coli NCM3722 delta-lon, growth: N-lim chemostat, doubling time 6 h
# [5] = E. coli NCM3722 delta-smpB, growth: N-lim chemostat, doubling time 6 h
# [6] = wild type E. coli NCM3722, growth: C-lim chemostat, doubling time 3 h
# [7] = wild type E. coli NCM3722, growth: C-lim chemostat, doubling time 6 h
# [8] = wild type E. coli NCM3722, growth: C-lim chemostat, doubling time 12 h
# [9] = wild type E. coli NCM3722, growth: N-lim chemostat, doubling time 6 h
# [10] = wild type E. coli NCM3722, growth: N-lim chemostat, doubling time 12 h
# [11] = wild type E. coli NCM3722, growth: P-lim chemostat, doubling time 6 h
# [12] = wild type E. coli NCM3722, growth: P-lim chemostat, doubling time 12 h
Sequence,total protein half-life in vivo [1] [h],total protein half-life in vivo [2] [h],total protein half-life in vivo [3] [h],total protein half-life in vivo [4] [h],total protein half-life in vivo [5] [h],total protein half-life in vivo [6] [h],total protein half-life in vivo [7] [h],total protein half-life in vivo [8] [h],total protein half-life in vivo [9] [h],total protein half-life in vivo [10] [h],total protein half-life in vivo [11] [h],total protein half-life in vivo [12] [h]
MMNPLIIKLGGVLLDSEEALERLFSALVNYRESHQRPLVIVHGGGCVVDELMKGLNLPVKKKNGLRVTPADQIDIITGALAGTANKTLLAWAKKHQIAAVGLFLGDGDSVKVTQLDEELGHVGLAQPGSPKLINSLLENGYLPVVSSIGVTDEGQLMNVNADQAATALAATLGADLILLSDVSGILDGKGQRIAEMTAAKAEQLIEQGIITDGMIVKVNAALDAARTLGRPVDIASWRHAEQLPALFNGMPMGTRILA [P0A6C8],4.97 ± 0.82,3.77 ± 0.19,3.36 ± 0.25,4.45 ± 0.17,3.02 ± 0.15,2.84 ± 0.045,5.19 ± 0.41,10.3 ± 3.4,3.404 ± 0.033,4.813 ± 0.046,4.58 ± 0.39,7.92 ± 0.16
MRRTFTAEEKASVFELWKNGTGFSEIANILGSKPGTIFTMLRDTGGIKPHERKRAVAHLTLSEREEIRAGLSAKMSIRAIATALNRSPSTISREVQRNRGRRYYKAVDANNRANRMAKRPKPCLLDQNLPLRKLVLEKLEMKWSPEQISGWLRRTKPRQKTLRISPETIYKTLYFRSREALHHLNIQHLRRSHSLRHGRRHTRKGERGTINIVNGTPIHERSRNIDNRRSLGHWEGDLVSGTKNSHIATLVDRKSRYTIILRLRGKDSVSVNQALTDKFLSLPSELRKSLTWDRGMELARHLEFTVSTGVKVYFCDPQSPWQRGTNENTNGLIRQYFPKKTCLAQYTQHELDLVAAQLNNRPRKTLKFKTPKEIIERGVALTD [P0CF90],5.45 ± 0.8,,,,,,,,,,,
MNMMRIFYIGLSGVGMMFSSMASGNDAGGLQSPACGVVCDPYICVNSDGISPELTRKYLGEKAAENLQSLQGYDPSEFTFANGVFCDVKEKLCRDDRYFGVDGKRSGKINQTTTKMLFMCRE,5.09 ± 1.6,5.4,6.01 ± 0.28,5.64,,2.85 ± 0.51,5.52 ± 0.4,,4.42 ± 1.2,> 16,4.78 ± 0.93,
MTDNNTALKKAGLKVTLPRLKILEVLQEPDNHHVSAEDLYKRLIDMGEEIGLATVYRVLNQFDDAGIVTRHNFEGGKSVFELTQQHHHDHLICLDCGKVIEFSDDSIEARQREIAAKHGIRLTNHSLYLYGHCAEGDCREDEHAHEGK [P0A9A9],6.49 ± 0.92,5.31 ± 0.6,4.58 ± 1.7,6.38 ± 0.37,3.6 ± 0.55,2.35 ± 0.2,4.31 ± 0.14,8.38 ± 1.9,4.58 ± 0.81,11.3 ± 3.6,5.27 ± 0.16,11.5 ± 1.6
MLIPWQDLSPETLENLIESFVLREGTDYGEHERTLEQKVADVKRQLQCGEAVLVWSELHETVNIMPRSQFRE,5.2,3.21,,4.14,,,3.93,,,,4.61,7.98
MKTKIPDAVLAAEVSRRGLVKTTAIGGLAMASSALTLPFSRIAHAVDSAIPTKSDEKVIWSACTVNCGSRCPLRMHVVDGEIKYVETDNTGDDNYDGLHQVRACLRGRSMRRRVYNPDRLKYPMKRVGARGEGKFERISWEEAYDIIATNMQRLIKEYGNESIYLNYGTGTLGGTMTRSWPPGNTLVARLMNCCGGYLNHYGDYSSAQIAEGLNYTYGGWADGNSPSDIENSKLVVLFGNNPGETRMSGGGVTYYLEQARQKSNARMIIIDPRYTDTGAGREDEWIPIRPGTDAALVNGLAYVMITENLVDQAFLDKYCVGYDEKTLPASAPKNGHYKAYILGEGPDGVAKTPEWASQITGVPADKIIKLAREIGSTKPAFISQGWGPQRHANGEIATRAISMLAILTGNVGINGGNSGAREGSYSLPFVRMPTLENPIQTSISMFMWTDAIERGPEMTALRDGVRGKDKLDVPIKMIWNYAGNCLINQHSEINRTHEILQDDKKCELIVVIDCHMTSSAKYADILLPDCTASEQMDFALDASCGNMSYVIFNDQVIKPRFECKTIYEMTSELAKRLGVEQQFTEGRTQEEWMRHLYAQSREAIPELPTFEEFRKQGIFKKRDPQGHHVAYKAFREDPQANPLTTPSGKIEIYSQALADIAATWELPEGDVIDPLPIYTPGFESYQDPLNKQYPLQLTGFHYKSRVHSTYGNVDVLKAACRQEMWINPLDAQKRGIHNGDKVRIFNDRGEVHIEAKVTPRMMPGVVALGEGAWYDPDAKRVDKGGCINVLTTQRPSPLAKGNPSHTNLVQVEKV,5.175 ± 0.011,,,,,,5.91,,,6.94,,
MMMGEVQSLPSAGLHPALQDALTLALAARPQEKAPGRYELQGDNIFMNVMTFNTQSPVEKKAELHEQYIDIQLLLNGEERILFGMAGTARQCEEFHHEDDYQLCSTIDNEQAIILKPGMFAVFMPGEPHKPGCVVGEPGEIKKVVVKVKADLMA,5.11 ± 0.56,5.65,4.7878 ± 0.0042,5.28,4.8 ± 0.44,2.61 ± 0.37,5.51 ± 0.72,9.27 ± 2.2,,7.67,4.2 ± 0.51,10.3 ± 0.17
MQTQKPTLELLTCEGAYRDNPTALFHQLCGDRPATLLLESADIDSKDDLKSLLLVDSALRITALGDTVTIQALSGNGEALLALLDNALPAGVESEQSPNCRVLRFPPVSPLLDEDARLCSLSVFDAFRLLQNLLNVPKEEREAMFFGGLFSYDLVAGFEDLPQLSAENNCPDFCFYLAETLMVIDHQKKSTRIQASLFAPNEEEKQRLTARLNELRQQLTEAAPPLPVVSVPHMRCECNQSDEEFGGVVRLLQKAIRAGEIFQVVPSRRFSLPCPSPLAAYYVLKKSNPSPYMFFMQDNDFTLFGASPESSLKYDATSRQIEIYPIAGTRPRGRRADGSLDRDLDSRIELEMRTDHKELSEHLMLVDLARNDLARICTPGSRYVADLTKVDRYSYVMHLVSRVVGELRHDLDALHAYRACMNMGTLSGAPKVRAMQLIAEAEGRRRGSYGGAVGYFTAHGDLDTCIVIRSALVENGIATVQAGAGVVLDSVPQSEADETRNKARAVLRAIATAHHAQETF,4.74 ± 0.93,3.4 ± 0.18,3.1 ± 0.083,3.6 ± 0.24,3.3 ± 0.17,2.93 ± 0.52,5.7 ± 0.12,9.57 ± 0.22,3.25 ± 0.13,5.08 ± 0.34,6.71 ± 0.33,10.7 ± 1.7
MEQRRLASTEWVDIVNEENEVIAQASREQMRAQCLRHRATYIVVHDGMGKILVQRRTETKDFLPGMLDATAGGVVQADEQLLESARREAEEELGIAGVPFAEHGQFYFEDKNCRVWGALFSCVSHGPFALQEDEVSEVCWLTPEEITARCDEFTPDSLKALALWMKRNAKNEAVETETAE,5.19 ± 0.16,4.78 ± 0.093,2.3 ± 0.074,2.72 ± 0.38,2.49 ± 0.11,1.93 ± 0.17,4.53 ± 1.2,7.26 ± 0.99,2.85,3.09 ± 0.045,3.4 ± 0.06,7.2 ± 0.65
